Laboratory results taken from publication PMC10144703, “Molecular Mechanism of Sirtuin 1 Inhibition by Human Immunodeficiency Virus 1 Tat Protein” (Life, 2023).

Tests used:
human Sirt3 = target: T1, human Sirt3 (Homo sapiens, UniProt Q9NTG7); assay: Continuous coupled enzymatic assay, Sirt3; assay type: biochemical; details: 65 μM Tat-Cys^−, acetylated peptide at substrate Km, n = 3
T1 construct: Sirt3-(93-399) in a modified pET-32a; Trx-His6 (cleaved yes); made in house; host or cells: E. coli CodonPlus(DE3)
T1 sequence (Q9NTG7 93-399): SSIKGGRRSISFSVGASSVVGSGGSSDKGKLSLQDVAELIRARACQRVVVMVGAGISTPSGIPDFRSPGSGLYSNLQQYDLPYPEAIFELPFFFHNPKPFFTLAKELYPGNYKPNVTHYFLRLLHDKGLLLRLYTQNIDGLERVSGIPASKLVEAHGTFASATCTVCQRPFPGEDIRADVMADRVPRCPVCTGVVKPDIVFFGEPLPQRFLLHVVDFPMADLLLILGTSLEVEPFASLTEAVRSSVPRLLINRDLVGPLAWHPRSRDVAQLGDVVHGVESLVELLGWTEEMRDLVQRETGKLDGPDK
Source text: A human mini-Sirt1 construct (aa 183-505-(GGGS)2-641-665), as described in [27], was generated in a modified pET-19b with a TEV cleavage site. This construct and human full-length Sirt1 (fl-Sirt1) in pET-15b, Sirt1-(183-664) and Sirt1-(214-664) in pET-15b, mini-Sirt1-∆SBD (aa 214-505-(GGGS)2-641-665) and mini-Sirt1-∆ESA (aa 183–505) in a modified pET-19b with TEV cleavage site, Sirt2-(43-356) in a modified pET-19b with a His6-Sumo tag, Sirt3-(93-399) in a modified pET-32a with Trx-His6 tag and TEV cleavage site, hSirt3-(118-399) in pVFT3S (Sungkyunkwan University, Seoul, Republic of Korea) with His6-Trx tag and TEV cleavage site, Sirt5-(34-302) in pET-151/D-TOPO, and Sirt6-(1-355) in pQE80L.1 were purified as described. […]
Continuous coupled enzymatic sirtuin activity assays were conducted as described. […] Reactions were monitored for 1 h at room temperature by absorption spectroscopy at 340 nm in a UV/vis plate reader (BioTek). The slope for the linear range (typically 5–25 min) was evaluated after background correction with measurements without NAD^+. Additional control reactions were run by either omitting enzyme or omitting peptide substrate to ensure that the signal measured reflects the NAD+-dependent deacetylation activity of the sirtuin.

[1] = target: T2, human mini-Sirt1 (aa 183-505-(GGGS)2-641-665) (Homo sapiens, UniProt Q96EB6); assay: FdL assay, mini-Sirt1; assay type: biochemical; details: Michaelis–Menten
T2 construct: aa 183-505-(GGGS)2-641-665; made in house; host or cells: E. coli CodonPlus(DE3)
T2 sequence (Q96EB6 with tags, fused parts or gaps limits assumed): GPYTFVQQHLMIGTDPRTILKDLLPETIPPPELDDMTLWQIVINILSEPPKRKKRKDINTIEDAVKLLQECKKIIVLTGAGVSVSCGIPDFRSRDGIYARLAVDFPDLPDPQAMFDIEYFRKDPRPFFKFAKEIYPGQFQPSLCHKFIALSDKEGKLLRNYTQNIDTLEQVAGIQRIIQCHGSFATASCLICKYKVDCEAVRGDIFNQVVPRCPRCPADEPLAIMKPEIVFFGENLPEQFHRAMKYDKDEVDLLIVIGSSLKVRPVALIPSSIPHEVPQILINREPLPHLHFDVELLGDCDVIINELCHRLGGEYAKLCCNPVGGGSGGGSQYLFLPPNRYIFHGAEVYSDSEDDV
Source text: A human mini-Sirt1 construct (aa 183-505-(GGGS)2-641-665), as described in [27], was generated in a modified pET-19b with a TEV cleavage site. This construct and human full-length Sirt1 (fl-Sirt1) in pET-15b, Sirt1-(183-664) and Sirt1-(214-664) in pET-15b, mini-Sirt1-∆SBD (aa 214-505-(GGGS)2-641-665) and mini-Sirt1-∆ESA (aa 183–505) in a modified pET-19b with TEV cleavage site, Sirt2-(43-356) in a modified pET-19b with a His6-Sumo tag, Sirt3-(93-399) in a modified pET-32a with Trx-His6 tag and TEV cleavage site, hSirt3-(118-399) in pVFT3S (Sungkyunkwan University, Seoul, Republic of Korea) with His6-Trx tag and TEV cleavage site, Sirt5-(34-302) in pET-151/D-TOPO, and Sirt6-(1-355) in pQE80L.1 were purified as described. Shortly, proteins were expressed at 20 °C (mini-Sirt1 constructs at 16 °C) in E. coli CodonPlus(DE3), cell lysates were cleared by centrifugation, and proteins were purified via affinity chromatography using a nickel NTA column. After digestion with thrombin or TEV protease, proteins were re-run over the nickel NTA column, pooled, and concentrated. The samples were, then, subjected either directly to size exclusion chromatography in 50 mM Tris/HCl, pH 8.0, 150 mM NaCl, 1 mM TCEP, or to an ion exchange chromatography followed by size exclusion chromatography. […]

mini-Sirt1 = target: T3, mini-Sirt1 (Homo sapiens, UniProt Q96EB6); assay: DSSO crosslinking and MS analysis of mini-Sirt1/Tat-Cys^−; assay type: binding
T3 construct: aa 183-505-(GGGS)2-641-665; made in house; host or cells: E. coli CodonPlus(DE3)
T3 sequence (Q96EB6 with tags, fused parts or gaps limits assumed): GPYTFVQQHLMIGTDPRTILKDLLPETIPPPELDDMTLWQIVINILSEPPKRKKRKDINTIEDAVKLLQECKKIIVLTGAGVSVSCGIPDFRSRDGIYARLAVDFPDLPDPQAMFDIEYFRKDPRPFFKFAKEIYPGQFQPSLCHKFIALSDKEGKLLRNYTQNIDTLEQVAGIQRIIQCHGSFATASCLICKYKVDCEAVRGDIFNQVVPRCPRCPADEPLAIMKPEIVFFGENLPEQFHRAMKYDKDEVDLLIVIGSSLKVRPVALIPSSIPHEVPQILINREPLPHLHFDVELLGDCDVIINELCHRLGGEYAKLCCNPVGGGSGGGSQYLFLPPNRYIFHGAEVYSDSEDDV
Experimental: Prior to crosslinking, mini-Sirt1, and Tat-Cys^− were dialyzed separately at 4 °C in Xpress Micro Dialyzer tubes (Serva, MD300, cutoff 6–8 kDa) against 25 mM HEPES, pH 7.5, 150 mM NaCl, 5% (v/v) glycerol. Then, 50 µM of each protein was crosslinked at 20 °C with 2.82 mM disuccinimidyl sulfoxide (DSSO) in 5% (v/v) DMSO. Before the addition of the crosslinker, 10 µL was removed from the reaction (t = 0 min) and stopped by adding 1 µL 1 M Tris/HCl, pH 8.0. Likewise, at several timepoints after the addition of DSSO, 10 µL of the reaction was sampled. Reaction samples were supplemented with SDS sample buffer and separated on a 15% SDS-PAGE. Controls contained only one of the two proteins and were treated similarly to exclude self-crosslinking.
Crosslinked protein bands were cut out from SDS-PAGE gels and digested with 200 ng trypsin in 25 mM NH4HCO3, pH 8.0, at 37 °C overnight. The digested proteins were dried in a vacuum centrifuge, resuspended in 0.1% (v/v) FA, and injected onto a desalting column, followed by automated peptide separation with a C18 column (buffer A: 0.1% (v/v) FA, 5% (v/v) acetonitrile; buffer B: 0.1% (v/v) FA, 95% (v/v) acetonitrile). MS/MS spectra were recorded with an LTQ mass spectrometer (Thermo Fischer Scientific, Waltham, MA, USA) and CID-cleaved inter-protein crosslinks were analyzed with Byonic^TM (Protein Metrics Inc., San Carlos, CA, USA).

B1: Tat-Cys^−: Recombinant 86-residue HIV1 Zaire 2 Tat with C22S, C25A, C27A, C30S, C31A, C34S, and C37A (protein)
chain: MDPVDPNIEPWNHPGSQPKTASNRAHAKKSAYHSQVAFITKGLGISYGRKKRRQRRRPSQGGQTHQDPIPKQPSSQPRGDPTGPKE
- inhibitory effect on Sirt3, continuous assay (human Sirt3): pronounced inhibitory effects
- inhibition mode vs acetylated substrate peptide, Sirt1 ([1]; FdL-1, mini-Sirt1, increasing Tat-Cys^−, n = 3): competitive with the acetylated substrate peptide
- inhibition mode vs NAD^+, Sirt1 ([1]; NAD^+, mini-Sirt1, increasing Tat-Cys^−, n = 3–6): non-competitive with NAD^+
- crosslinking, SDS-PAGE (mini-Sirt1; 50 µM each protein, 2.82 mM DSSO, 5% (v/v) DMSO, pH 7.5, 20 °C): a strong band for a linked complex
- crosslink site by MS (mini-Sirt1; DSSO crosslink, trypsin digest, MS/MS): a crosslink between Tat-Lys71 and Sirt1-Lys238
